Measurements taken from US20220348648A1 (published 2022).
Where two headings read alike, the source gives them in different places.

B1: 2-C8-A (antibody, V domains shown)
VH: EVQLVESGGGLVQPGGSQRLSCAASGFTFSSYWMNWVRQAPGKGLEWVANIKEDGSEKYYVDSVKGRFTISRDNAKNSLYLQMNSLRAEDTAVYYCARDPGWAPFDYWGQGTLVTVSS
VL: DIQMSQSPSSLSASVGDRVTITCRASQGISNYLAWFQQKPGKAPKSLIYAASSLQSGVPSKFSGSGSGTDFTLAISSLQPEDFATYYCQQYNSFPYTFGQGTTLEIK
B2: 7-I1-B (antibody, V domains shown)
VH: EVQLVESGGGLVKPGGSLRLSCAASGFTFSNTWMSWVRQAPGKGLEWVGRIKSKSDGGTTDYAAPVKGRFTISRDDSKNTLYLQMNSLKTEDTAVYYCTQYYWNSFDYWGQGTLVTVSS
VL: not shown
B3: 10-O18-A (antibody, V domains shown)
VH: QVQLQESGPGLVKPSETLSLTCTVSGGSINSYYWSWIRQPPGKGLEWIGYIFYSGITNYNPSLKSRVTISLDTSKNQFSLKLSSVTAADTAVYYCARIGVAGFYFDYWGQGTLVTVSS
VL: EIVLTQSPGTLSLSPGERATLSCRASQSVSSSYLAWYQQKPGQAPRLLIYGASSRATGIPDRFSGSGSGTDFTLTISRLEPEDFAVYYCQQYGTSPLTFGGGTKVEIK
B4: 6-G23-F (antibody, V domains shown)
VH: QVQLVQSGAEVKKPGASVKVSCKASGYTFTSYYIHWVRQAPGQGLEWMGIIDPSDGSTNYAQKFQGRVTMTRDTSTSTVYMELSSLRSEDTAVYYCARDREYNYYGLDVWGQGTTVTVSS
VL: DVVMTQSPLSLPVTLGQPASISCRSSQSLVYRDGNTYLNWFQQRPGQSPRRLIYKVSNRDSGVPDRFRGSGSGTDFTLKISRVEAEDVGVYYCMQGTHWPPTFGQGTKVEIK

Experiments:
Experiment in all cases: BLI (Octet HTX)
[1] = biological target: T1, Recombinant Human DLL3 Protein (amino acids Ala27-Ala479, Cat #9749-DL, R&D Systems) (UniProt Q9NYJ7 27-479)
T1 chain: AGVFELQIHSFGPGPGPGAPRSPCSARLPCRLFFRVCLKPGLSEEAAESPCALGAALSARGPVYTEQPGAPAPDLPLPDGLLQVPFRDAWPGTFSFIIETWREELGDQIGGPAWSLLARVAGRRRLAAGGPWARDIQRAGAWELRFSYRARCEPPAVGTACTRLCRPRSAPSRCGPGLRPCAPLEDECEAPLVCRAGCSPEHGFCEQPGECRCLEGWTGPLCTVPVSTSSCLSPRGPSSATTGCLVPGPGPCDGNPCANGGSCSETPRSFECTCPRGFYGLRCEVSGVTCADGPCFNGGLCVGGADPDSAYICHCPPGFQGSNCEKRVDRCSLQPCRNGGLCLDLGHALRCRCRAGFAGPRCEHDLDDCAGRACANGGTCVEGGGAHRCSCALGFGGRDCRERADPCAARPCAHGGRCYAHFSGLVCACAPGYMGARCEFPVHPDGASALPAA

[2] = biological target: T1, Recombinant Human DLL3 Protein (amino …)
[3] = biological target: T1, Recombinant Human DLL3 Protein (amino …)

Binder	Kd [1] [nM]	Kd [2] [nM]	Kd [3] [nM]
B1	0.668	0.668	
B2		0.68	0.686
B3	0.602	0.62	
B4		0.16	0.16
